Tests used:
[1] = target: T1, Vif/EloB/C/CBFβ quaternary complex (full-length HIV-1 HXB2 Vif(1-192) / ElonginB 1-118 / ElonginC 17 (HIV-1 HXB2; human), P69720; experiment: fluorescence anisotropy, complex titrated into 25 nM 5-FAM peptide; Sd ± 1.0
[2] = target: T1, Vif/EloB/C/CBFβ quaternary complex …; experiment: fluorescence anisotropy, complex titrated into 25 nM 5-FAM peptide; Sd ± 4.2
[3] = target: T1, Vif/EloB/C/CBFβ quaternary complex …; experiment: fluorescence anisotropy, complex titrated into 25 nM 5-FAM peptide; Sd ± 0.1
[4] = target: T1, Vif/EloB/C/CBFβ quaternary complex …; experiment: fluorescence anisotropy, complex titrated into 25 nM 5-FAM peptide; Sd ± 7.0

B1: Cul5(43-65) peptide (peptide)
peptide: LFSDVHAVCLWDDKGPAKIHQAL
modifications: not checked
[1]
  Kd: 4.7 µM

B2: Cul5(37-48) peptide (peptide)
peptide: KQQWFDLFSDVH
modifications: not checked
[2]
  Kd: 15.6 µM

B3: Cul5(37-53) peptide (peptide)
peptide: KQQWFDLFSDVHAVCLW
modifications: not checked
[3]
  Kd: 1.2 µM

B4: Cul5(30-40) peptide (peptide)
peptide: LRQESVTKQQW
modifications: not checked
[4]
  Kd: 16 µM

B5: Cul5(43-54) peptide (peptide)
peptide: LFSDVHAVCLWD
modifications: not checked
[3]
  Kd: 2.5 µM
